Substrate in series [1]: c1cc2c(cc1[C@H]1OC[C@H]3[C@@H]1CO[C@@H]3c1ccc3c(c1)OCO3)OCO2
The series can be described thus: Activity of recombinant human CYP1A2 expressed in Saccharomyces cerevisiae AH22 cells assessed as enzyme-mediated sesamin monocatecholization after 15 mins by Michaelis-Menten plot analysis in presence of NADPH. It counts as ADME, cell-based.

Substrate in series [2]: c1cc2c(cc1[C@H]1OC[C@H]3[C@@H]1CO[C@@H]3c1ccc3c(c1)OCO3)OCO2
The series can be described thus: Activity of recombinant human CYP2C9 expressed in Saccharomyces cerevisiae AH22 cells assessed as enzyme-mediated sesamin monocatecholization after 15 mins by Michaelis-Menten plot analysis in presence of NADPH. It counts as ADME, cell-based.

Substrate in series [3]: [H][C@]12CO[C@@H](c3ccc(O)c(O)c3)[C@@]1([H])CO[C@@H]2c1ccc2c(c1)OCO2
The series can be described thus: (§1) Drug metabolism in human liver cytosol assessed as COMT-mediated methylation after 10 to 30 mins by HPLC analysis in presence of SAM. Format: ADME.

Substrate in series [4]: [H][C@]12CO[C@@H](c3ccc4c(c3)OCO4)[C@@]1([H])CO[C@@H]2c1ccc(O)c(O)c1
Described as §1. It counts as ADME.

Substrate in series [5]: [H][C@]12CO[C@H](c3ccc4c(c3)OCO4)[C@@]1([H])CO[C@@H]2c1ccc(O)c(O)c1
Described as §1. It counts as ADME.

Substrate in series [6]: [H][C@]12CO[C@@H](c3ccc(O)c(O)c3)[C@@]1([H])CO[C@@H]2c1ccc2c(c1)OCO2
The series can be described thus: (§2) Drug metabolism in Sprague-Dawley rat liver cytosol assessed as COMT-mediated methylation after 10 to 30 mins by HPLC analysis in presence of SAM. Format: ADME.

Substrate in series [7]: [H][C@]12CO[C@@H](c3ccc4c(c3)OCO4)[C@@]1([H])CO[C@@H]2c1ccc(O)c(O)c1
Described as §2. Format: ADME.

Substrate in series [8]: [H][C@]12CO[C@H](c3ccc4c(c3)OCO4)[C@@]1([H])CO[C@@H]2c1ccc(O)c(O)c1
The series is described as §2. It counts as ADME.

Substrate in series [9]: [H][C@]12CO[C@@H](c3ccc(O)c(O)c3)[C@@]1([H])CO[C@@H]2c1ccc2c(c1)OCO2
The series can be described thus: (§3) Activity of recombinant human CYP2C19 expressed in Saccharomyces cerevisiae AH22 cells assessed as enzyme-mediated episesamin dicatechol formation after 15 mins by HPLC analysis in presence of NADPH. Format: ADME, cell-based.

Substrate in series [10]: [H][C@]12CO[C@@H](c3ccc4c(c3)OCO4)[C@@]1([H])CO[C@@H]2c1ccc(O)c(O)c1
The description is as §3. It counts as ADME, cell-based.

Substrate in series [11]: [H][C@]12CO[C@H](c3ccc4c(c3)OCO4)[C@@]1([H])CO[C@@H]2c1ccc(O)c(O)c1
The series can be described thus: Activity of recombinant human CYP2C19 expressed in Saccharomyces cerevisiae AH22 cells assessed as enzyme-mediated sesamin dicatechol formation after 15 mins by HPLC analysis in presence of NADPH. Format: ADME, cell-based.

B1: Cytochrome P450 1A2 (Homo sapiens) (protein)
chain: MALSQSVPFSATELLLASAIFCLVFWVLKGLRPRVPKGLKSPPEPWGWPLLGHVLTLGKNPHLALSRMSQRYGDVLQIRIGSTPVLVLSRLDTIRQALVRQGDDFKGRPDLYTSTLITDGQSLTFSTDSGPVWAARRRLAQNALNTFSIASDPASSSSCYLEEHVSKEAKALISRLQELMAGPGHFDPYNQVVVSVANVIGAMCFGQHFPESSDEMLSLVKNTHEFVETASSGNPLDFFPILRYLPNPALQRFKAFNQRFLWFLQKTVQEHYQDFDKNSVRDITGALFKHSKKGPRASGNLIPQEKIVNLVNDIFGAGFDTVTTAISWSLMYLVTKPEIQRKIQKELDTVIGRERRPRLSDRPQLPYLEAFILETFRHSSFLPFTIPHSTTRDTTLNGFYIPKKCCVFVNQWQVNHDPELWEDPSEFRPERFLTADGTAINKPLSEKMMLFGMGKRRCIGEVLAKWEIFLFLAILLQQLEFSVPPGVKVDLTPIYGLTMKHARCEHVQARLRFSIN
As usually defined, the Km is the substrate concentration at which the rate is half of its maximum. What is called kcat is the number of substrate molecules converted per active site and unit of time at saturation. The term kcat/Km denotes the second-order rate constant that governs catalysis at low substrate concentration. On to B1, for which, in series [1], the Michaelis-Menten constant (Km) amounted to 15 µM, the kcat came out at 0.0833 s⁻¹ and the kcat/Km came to 5500 M⁻¹ s⁻¹.

B2: Cytochrome P450 2C9 (Homo sapiens) (protein)
chain: MDSLVVLVLCLSCLLLLSLWRQSSGRGKLPPGPTPLPVIGNILQIGIKDISKSLTNLSKVYGPVFTLYFGLKPIVVLHGYEAVKEALIDLGEEFSGRGIFPLAERANRGFGIVFSNGKKWKEIRRFSLMTLRNFGMGKRSIEDRVQEEARCLVEELRKTKASPCDPTFILGCAPCNVICSIIFHKRFDYKDQQFLNLMEKLNENIKILSSPWIQICNNFSPIIDYFPGTHNKLLKNVAFMKSYILEKVKEHQESMDMNNPQDFIDCFLMKMEKEKHNQPSEFTIESLENTAVDLFGAGTETTSTTLRYALLLLLKHPEVTAKVQEEIERVIGRNRSPCMQDRSHMPYTDAVVHEVQRYIDLLPTSLPHAVTCDIKFRNYLIPKGTTILISLTSVLHDNKEFPNPEMFDPHHFLDEGGNFKKSKYFMPFSAGKRICVGEALAGMELFLFLTSILQNFNLKSLVDPKNLDTTPVVNGFASVPPFYQLCFIPV
As to B2, in series [2], the Michaelis-Menten constant (Km) is 5.4 µM, the kcat came out at 0.0517 s⁻¹ and the specificity constant (kcat/Km) worked out at 9500 M⁻¹ s⁻¹.

B3: Catechol O-methyltransferase (Homo sapiens) (protein)
chain: MPEAPPLLLAAVLLGLVLLVVLLLLLRHWGWGLCLIGWNEFILQPIHNLLMGDTKEQRILNHVLQHAEPGNAQSVLEAIDTYCEQKEWAMNVGDKKGKIVDAVIQEHQPSVLLELGAYCGYSAVRMARLLSPGARLITIEINPDCAAITQRMVDFAGVKDKVTLVVGASQDIIPQLKKKYDVDTLDMVFLDHWKDRYLPDTLLLEECGLLRKGTVLLADNVICPGAPDFLAHVRGSSCFECTHYQSFLEYREVVDGLEKAIYKGPGSEAGP
For orientation: Vmax means the rate approached at saturating substrate. In the case of B3, the Km in series [3] was determined as 2.5 µM; in [4] it was 2.4 µM; in series [5] it was 5.6 µM. Further, the Vmax in series [3] was determined as 0.00071 µmol/min; in series [4], 0.00059 µmol/min; in [5], 0.0013 µmol/min.

B4: Catechol O-methyltransferase (Rattus norvegicus) (protein)
chain: MPLAAVSLGLLLLALLLLLRHLGWGLVTIFWFEYVLQPVHNLIMGDTKEQRILRYVQQNAKPGDPQSVLEAIDTYCTQKEWAMNVGDAKGQIMDAVIREYSPSLVLELGAYCGYSAVRMARLLQPGARLLTMEMNPDYAAITQQMLNFAGLQDKVTILNGASQDLIPQLKKKYDVDTLDMVFLDHWKDRYLPDTLLLEKCGLLRKGTVLLADNVIVPGTPDFLAYVRGSSSFECTHYSSYLEYMKVVDGLEKAIYQGPSSPDKS
As for B4, the Km in series [6] came to 5.5 µM; in series [7] it was 7.7 µM; in series [8] it was 9.2 µM. Also, the Vmax in series [6] was found to be 0.0024 µmol/min; in [7], 0.0032 µmol/min; in series [8], 0.0033 µmol/min.

B5: Cytochrome P450 2C19 (Homo sapiens) (protein)
chain: MDPFVVLVLCLSCLLLLSIWRQSSGRGKLPPGPTPLPVIGNILQIDIKDVSKSLTNLSKIYGPVFTLYFGLERMVVLHGYEVVKEALIDLGEEFSGRGHFPLAERANRGFGIVFSNGKRWKEIRRFSLMTLRNFGMGKRSIEDRVQEEARCLVEELRKTKASPCDPTFILGCAPCNVICSIIFQKRFDYKDQQFLNLMEKLNENIRIVSTPWIQICNNFPTIIDYFPGTHNKLLKNLAFMESDILEKVKEHQESMDINNPRDFIDCFLIKMEKEKQNQQSEFTIENLVITAADLLGAGTETTSTTLRYALLLLLKHPEVTAKVQEEIERVIGRNRSPCMQDRGHMPYTDAVVHEVQRYIDLIPTSLPHAVTCDVKFRNYLIPKGTTILTSLTSVLHDNKEFPNPEMFDPRHFLDEGGNFKKSNYFMPFSAGKRICVGEGLARMELFLFLTFILQNFNLKSLIDPKDLDTTPVVNGFASVPPFYQLCFIPV
Turning to B5, the Km in series [9] came to 7.3 µM; in [10] it was 7.3 µM; in [11], 5.1 µM. Further, the figures for the catalytic constant (kcat) in series [9], in series [10] and in [11] were 0.25 s⁻¹, 0.25 s⁻¹ and 0.233 s⁻¹, respectively.
